Source: patent US20230134571A1 (INTERNATIONAL AIDS VACCINE INITIATIVE, published 2023)

Legend:
Assay in all cases: cell-based or functional assay
[1] = target: HIV Env of isolate Q769.d22 (clade A) (HIV)
[2] = target: HIV Env of isolate BJOX009000.02.4 (clade AE) (HIV)
[3] = target: HIV Env of isolate CAP45.2.00.G3 (clade C) (HIV)
[4] = target: HIV Env of isolate P1981_C5_3 (clade G) (HIV)
[5] = target: HIV Env of isolate BJOX015000.11.5 (clade AE) (HIV)
[6] = target: HIV Env of isolate Ce2010_F5 (clade C) (HIV)
[7] = target: HIV Env of isolate ZM214M.PL15 (clade C) (HIV)
[8] = target: HIV Env of isolate 6540.v4.c1 (clade AC) (HIV)
[9] = target: HIV Env of isolate ZM233M.PB6 (clade C) (HIV)
[10] = target: HIV Env of isolate CNE19 (clade BC) (HIV)
[11] = target: HIV Env of isolate CNE20 (clade BC) (HIV)
[12] = target: HIV Env of isolate WEAU_d15_410_5017 (clade B) (HIV)
[13] = target: HIV Env of isolate Q23.17 (clade A) (HIV)
[14] = target: HIV Env of isolate HIV-16055-2.3 (clade C) (HIV)
[15] = target: HIV Env of isolate CNE52 (clade BC) (HIV)
[16] = target: HIV Env of isolate 246FC1G (clade C) (HIV)
[17] = target: HIV Env of isolate X2088_C9 (clade G) (HIV)
[18] = target: HIV Env of isolate 1054_07_TC4_1499 (clade B) (HIV)
[19] = target: HIV Env of isolate 6952.v1.c20 (clade CD) (HIV)
[20] = target: HIV Env of isolate C3347.c11 (clade AE) (HIV)
[21] = target: HIV Env of isolate 9004SS_A3_4 (clade A) (HIV)
[22] = target: HIV Env of isolate ZM109F.PB4 (clade C) (HIV)
[23] = target: HIV Env of isolate 6545.v4.c1 (clade AC) (HIV)
[24] = target: HIV Env of isolate T257-31 (clade AG) (HIV)
[25] = target: HIV Env of isolate R2184.c04 (clade AE) (HIV)
[26] = target: HIV Env of isolate R3265.c06 (clade AE) (HIV)
[27] = target: HIV Env of isolate Q461.e2 (clade A) (HIV)

Binder | IC50 (µg/ml) with constrains [1] | IC80 (µg/ml) with constrains [1] | IC50 (µg/ml) with constrains [2] | IC80 (µg/ml) with constrains [2] | IC50 (µg/ml) with constrains [3] | IC50 (µg/ml) with constrains [4] | IC50 (µg/ml) with constrains [5] | IC80 (µg/ml) with constrains [5] | IC50 (µg/ml) with constrains [6] | IC50 (µg/ml) with constrains [7] | IC50 (µg/ml) with constrains [8] | IC80 (µg/ml) with constrains [8] | IC50 (µg/ml) with constrains [9] | IC50 (µg/ml) with constrains [10] | IC50 (µg/ml) with constrains [11] | IC50 (µg/ml) with constrains [12] | IC80 (µg/ml) with constrains [13] | IC50 (µg/ml) with constrains [14] | IC50 (µg/ml) with constrains [15] | IC50 (µg/ml) with constrains [16] | also measured
ePGDM13 (antibody, V domains shown) VH: QAQLVQSGPEVRKPGTSVKVSCKNPGNTLTTYDLHWVRQVPGQGLQWMGWISHEGDKKVIVERFKAKVTIDWDRSTNTAYLQLSGLTSEDTAVYYCAKGSKHRLRDYALYDEDGALNWAVDVDYLANLEFWGQGTAVTVSS VL: DIVLTQSPLSLSVTPGESASISCKSSHSLQHGDRNNYLAWYVQKPGRSPQLLLDLASERASGVPDRFSGSGSEKDFTLKISRVETEDVGTYYCMQGRESPWTFGQGTKVDIK | 0.002 µg/mL | 0.01 µg/mL | 0.265 µg/mL | 1.06 µg/mL | 0.002 µg/mL | 0.319 µg/mL | 1.72 µg/mL | 6.86 µg/mL | > 100 µg/mL | > 100 µg/mL | 0.015 µg/mL | 0.06 µg/mL | 0.001 µg/mL | 0.003 µg/mL | 0.004 µg/mL | 0.003 µg/mL | 0.004 µg/mL | 0.003 µg/mL | 2.83 µg/mL | > 100 µg/mL | IC50 (µg/ml) with constrains [13]: 0.001 µg/mL; IC50 (µg/ml) with constrains [17]: 64.1 µg/mL; IC50 (µg/ml) with constrains [18]: > 100 µg/mL; IC50 (µg/ml) with constrains [19]: 0.079 µg/mL; IC50 (µg/ml) with constrains [20]: 0.009 µg/mL; IC80 (µg/ml) with constrains [20]: 0.037 µg/mL; IC50 (µg/ml) with constrains [21]: > 100 µg/mL; IC80 (µg/ml) with constrains [21]: > 100 µg/mL; IC50 (µg/ml) with constrains [22]: 0.049 µg/mL; IC50 (µg/ml) with constrains [23]: 0.076 µg/mL; IC80 (µg/ml) with constrains [23]: 0.305 µg/mL; IC50 (µg/ml) with constrains [24]: 0.02 µg/mL; IC80 (µg/ml) with constrains [24]: 0.078 µg/mL; IC50 (µg/ml) with constrains [25]: 0.005 µg/mL; IC80 (µg/ml) with constrains [25]: 0.019 µg/mL; IC50 (µg/ml) with constrains [26]: 0.026 µg/mL; IC80 (µg/ml) with constrains [26]: 0.104 µg/mL; IC50 (µg/ml) with constrains [27]: 0.132 µg/mL; IC80 (µg/ml) with constrains [27]: 0.528 µg/mL
PGDM1400 (antibody, V domains shown) VH: QVHLTQSGPEVRKPGTSVKVSCKAPGNTLKTYDLHWVRSVPGQGLQWMGWISHEGDKKVIVERFKAKVTIDWDRSTNTAYLQLSGLTSGDTAVYYCAKGSKHRLRDYALYDDDGALNWAVDVDYLSNLEFWGQGTAVTVSS VL: DFVLTQSPHSLSVTPGESASISCKSSHSLIHGDRNNYLAWYVQKPGRSPQLLIYLASSRASGVPDRFSGSGSDKDFTLKISRVETEDVGTYYCMQGRESPWTFGQGTKVDIK | 0.007 µg/mL | 0.028 µg/mL | 1.1 µg/mL | 4.42 µg/mL | 0.001 µg/mL | 18.9 µg/mL | 1.05 µg/mL | 4.21 µg/mL | > 100 µg/mL | > 100 µg/mL | 0.007 µg/mL | 0.026 µg/mL | 0.002 µg/mL | 0.005 µg/mL | 0.005 µg/mL | 0.075 µg/mL | 0.005 µg/mL | 0.003 µg/mL | > 100 µg/mL | > 100 µg/mL | IC50 (µg/ml) with constrains [13]: 0.001 µg/mL; IC50 (µg/ml) with constrains [17]: > 100 µg/mL; IC50 (µg/ml) with constrains [18]: > 100 µg/mL; IC50 (µg/ml) with constrains [19]: 1.76 µg/mL; IC50 (µg/ml) with constrains [20]: 0.015 µg/mL; IC80 (µg/ml) with constrains [20]: 0.061 µg/mL; IC50 (µg/ml) with constrains [21]: > 100 µg/mL; IC80 (µg/ml) with constrains [21]: > 100 µg/mL; IC50 (µg/ml) with constrains [22]: 0.098 µg/mL; IC50 (µg/ml) with constrains [23]: 0.148 µg/mL; IC80 (µg/ml) with constrains [23]: 0.594 µg/mL; IC50 (µg/ml) with constrains [24]: 0.138 µg/mL; IC80 (µg/ml) with constrains [24]: 0.552 µg/mL; IC50 (µg/ml) with constrains [25]: 0.006 µg/mL; IC80 (µg/ml) with constrains [25]: 0.022 µg/mL; IC50 (µg/ml) with constrains [26]: 0.019 µg/mL; IC80 (µg/ml) with constrains [26]: 0.075 µg/mL; IC50 (µg/ml) with constrains [27]: 0.143 µg/mL; IC80 (µg/ml) with constrains [27]: 0.572 µg/mL
ePGDM9 (antibody, V domains shown) VH: QAQLVQSGPEVRKPGTSVKVSCKNPGNTLTTYDLHWVRQVPGQGLQWMGWISHEGDKKVIVERFKAKVTIDWDRSTNTAYLQLSGLTSEDTAVYYCAKGSKHRLRDYALYDEDGALNWAVDVDYLANLEFWGQGTAVTVSS VL: DIVLTQSPLSLSVTPGESASISCKSSQSLIHGDRNNYLAWYVQKPGRSPQLLIDLASERASGVPDRFSGSGSRKDFTLKISRVETEDVGTYYCMQGRESPWTFGQGTKVDIK | 0.002 µg/mL | 0.009 µg/mL | 0.234 µg/mL | 0.936 µg/mL | 0.001 µg/mL | 0.146 µg/mL | 0.958 µg/mL | 3.83 µg/mL | > 100 µg/mL | > 100 µg/mL | 0.008 µg/mL | 0.031 µg/mL | 0.002 µg/mL | 0.003 µg/mL | 0.002 µg/mL | 0.002 µg/mL | 0.002 µg/mL | 0.001 µg/mL | 1.85 µg/mL | > 100 µg/mL | IC50 (µg/ml) with constrains [17]: > 100 µg/mL; IC50 (µg/ml) with constrains [18]: > 100 µg/mL; IC50 (µg/ml) with constrains [19]: 0.052 µg/mL; IC50 (µg/ml) with constrains [20]: 0.003 µg/mL; IC80 (µg/ml) with constrains [20]: 0.011 µg/mL; IC50 (µg/ml) with constrains [21]: > 100 µg/mL; IC80 (µg/ml) with constrains [21]: > 100 µg/mL; IC50 (µg/ml) with constrains [22]: 0.027 µg/mL; IC50 (µg/ml) with constrains [23]: 0.041 µg/mL; IC80 (µg/ml) with constrains [23]: 0.164 µg/mL; IC50 (µg/ml) with constrains [24]: 0.019 µg/mL; IC80 (µg/ml) with constrains [24]: 0.076 µg/mL; IC50 (µg/ml) with constrains [25]: 0.003 µg/mL; IC80 (µg/ml) with constrains [25]: 0.011 µg/mL; IC50 (µg/ml) with constrains [26]: 0.019 µg/mL; IC80 (µg/ml) with constrains [26]: 0.078 µg/mL; IC50 (µg/ml) with constrains [27]: 0.06 µg/mL; IC80 (µg/ml) with constrains [27]: 0.24 µg/mL
ePGDM5 (antibody, V domains shown) VH: QAQLVQSGPEVRKPGTSVKVSCKNPGNTLTTYDLHWVRQVPGQGLQWMGWISHEGDKKVIVERFKAKVTIDWDRSTNTAYLQLSGLTSEDTAVYYCAKGSKHRLRDYALYDEDGALNWAVDVDYLANLEFWGQGTAVTVSS VL: DFVLTQSPLSLSVTPGESASISCKSDHSLQHGDRNNYLAWYVQKPGRSPQLLIDLASERASGVPDRFSGSGSRKDFTLKIDRVEAEDVGTYYCMQGRESPWTFGQGTKVDIK | 0.003 µg/mL | 0.011 µg/mL | 0.296 µg/mL | 1.18 µg/mL | 0.001 µg/mL | 0.295 µg/mL | 1.1 µg/mL | 4.39 µg/mL | > 100 µg/mL | > 100 µg/mL | 0.012 µg/mL | 0.05 µg/mL | 0.002 µg/mL | 0.003 µg/mL | 0.004 µg/mL | 0.001 µg/mL | 0.004 µg/mL | 0.002 µg/mL | 6.14 µg/mL | > 100 µg/mL | IC50 (µg/ml) with constrains [13]: 0.001 µg/mL; IC50 (µg/ml) with constrains [17]: 28.6 µg/mL; IC50 (µg/ml) with constrains [18]: > 100 µg/mL; IC50 (µg/ml) with constrains [19]: 0.033 µg/mL; IC50 (µg/ml) with constrains [20]: 0.005 µg/mL; IC80 (µg/ml) with constrains [20]: 0.021 µg/mL; IC50 (µg/ml) with constrains [21]: > 100 µg/mL; IC80 (µg/ml) with constrains [21]: > 100 µg/mL; IC50 (µg/ml) with constrains [22]: 0.03 µg/mL; IC50 (µg/ml) with constrains [23]: 0.043 µg/mL; IC80 (µg/ml) with constrains [23]: 0.17 µg/mL; IC50 (µg/ml) with constrains [24]: 0.016 µg/mL; IC80 (µg/ml) with constrains [24]: 0.064 µg/mL; IC50 (µg/ml) with constrains [25]: 0.004 µg/mL; IC80 (µg/ml) with constrains [25]: 0.017 µg/mL; IC50 (µg/ml) with constrains [26]: 0.028 µg/mL; IC80 (µg/ml) with constrains [26]: 0.113 µg/mL; IC50 (µg/ml) with constrains [27]: 0.104 µg/mL; IC80 (µg/ml) with constrains [27]: 0.415 µg/mL
